The values below come from patent US20090280138A1 (OXFORD BIOMEDICA UK, published 2009).

In assay [1] the target is T1, MHC class I molecule A*0101 (biotin (bound to streptavidin-coated plate)).
T1 construct: also called A1; HLA-A1
Briefly: iTopia iScore. In short, it runs like this:
(§1)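 The iScore combines the binding, off-rate and affinity results into one overall binding-quality value for each 9-mer. These measurements were made by ELISA in duplicate on MHC-coated plates, with allele-specific positive controls.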

The target in assay [2] is T2, MHC class I molecule A*0201 (biotin (bound to streptavidin-coated plate)).
T2 construct: also called A2; HLA-A2
Briefly: iTopia iScore. In short, it runs like this:
as §1

Assay [3] addresses T3, MHC class I molecule A*0301 (biotin (bound to streptavidin-coated plate)).
T3 construct: also called A3; HLA-A3
Description: iTopia iScore. In short, it runs like this: as §1

Assay [4] concerns the target T4, MHC class I molecule B*0702 (biotin (bound to streptavidin-coated plate)).
T4 construct: also called B7; HLA-B7
Briefly: iTopia iScore. In short, it runs like this: as §1

Assay [5] deals with T5, MHC class I allele A*0101 monomer (human, biotinylated, bound to streptavidin-coated plate).
T5 construct: placeholder peptide and b2M removed, then reconstituted with test peptide and fresh b2M; also called A1; HLA-A1
Description: iTopia, multiparametric iScore. How it is done:
(§2) The 9 mers were tested for Peptide Binding, Off Rate and Affinity using iTopia Epitope Discovery System in accordance with the manufacturer's instructions. Briefly, 96 well microtitre plates coated with MHC molecules representing different MHC alleles are used to identify candidate peptides. […] Determinations are performed in duplicate using an ELISA plate reader and included allele specific positive controls.
(§3) Finally, multiparametric analysis is performed on the results from these assays and an iScore is generated. The iScore represents a measure of the overall quality of peptide-MHC binding, enabling candidate peptides to be ranked in order of binding quality and allowing rational prioritisation of peptides for functional cellular follow-up studies.

Assay [6] deals with T6, MHC class I allele A*0201 monomer (human, biotinylated, bound to streptavidin-coated plate).
T6 construct: also called A2; HLA-A2
Briefly: iTopia, multiparametric iScore. As for the experimental part: as §2, §3

Assay [7] concerns the target T7, MHC class I allele A*0301 monomer (human, biotinylated, bound to streptavidin-coated plate).
T7 construct: also called A3; HLA-A3
Description: iTopia, multiparametric iScore. How it is done: as §2, §3

Assay [8] addresses T8, MHC class I allele B*0702 monomer (human, biotinylated, bound to streptavidin-coated plate).
T8 construct: also called B7; HLA-B7
Briefly: iTopia, multiparametric iScore. As for the experimental part:
as §2, §3

For LLAGRALQG [5T4 9-mer peptide 102 LLAGRALQG], the iScore in assay [1] amounted to 0; in assay [2], 0.176; in assay [3], 0; in assay [4], 0.

Regarding DNALKVLHN [5T4 9-mer peptide 134], the iScore in assay [5], in assay [6], in assay [7] and in assay [8] was 0 in each case.

On to SNHFLYLPR [5T4 9-mer peptide 110 SNHFLYLPR], for which the iScore in assay [1] worked out at 0; in assay [2], 0.051; in assay [3] it was 0.084; in assay [4], 0.

For the molecule LQGLRRLEL [5T4 9-mer peptide 105 LQGLRRLEL], the iScore in assay [1] amounted to 0; in assay [2] it was 0.114; in assay [3] it was 0; in assay [4], 0.119.

For AQLPSLRHL [5T4 9-mer peptide 116 AQLPSLRHL], the iScore stood at 0 in assay [1], 0.162 in assay [2], 0 in assay [3] and 0 in assay [4].

In the case of LHLEDNALK [5T4 9-mer peptide 132], the iScore in assay [5], in assay [6], in assay [7] and in assay [8] was 0 throughout.

Turning to SLRHLDLSN [5T4 9-mer peptide 118 SLRHLDLSN], the iScore in assay [1] amounted to 0; in assay [2] it was 0.03; in assay [3], 0; in assay [4], 0.

On to RDVLAQLPS [5T4 9-mer peptide 114 RDVLAQLPS], for which the iScore in assay [1], in assay [2], in assay [3] and in assay [4] was 0 each time.

In the case of LYLPRDVLA [5T4 9-mer peptide 112 LYLPRDVLA], the iScore came out at 0 in assay [1], 0.218 in assay [2], 0 in assay [3] and 0 in assay [4].

In the case of AGRALQGLR [5T4 9-mer peptide 103 AGRALQGLR], the iScore in assay [1], in assay [2], in assay [3] and in assay [4] was 0 in each case.

In the case of LPRDVLAQL [5T4 9-mer peptide 113 LPRDVLAQL], the iScore in assay [1] came out at 0; in assay [2] it was 0; in assay [3] it was 0; in assay [4] it was 0.305.

RHLDLSNNS [5T4 9-mer peptide 119 RHLDLSNNS]: the iScore in assay [1] amounted to 0; in assay [2] it was 0.029; in assay [3], 0; in assay [4], 0.

In the case of KVLHNGTLA [5T4 9-mer peptide 136], the iScore in assay [5] was 0; in assay [6], 0.15; in assay [7], 0; in assay [8], 0.

As to LSNNSLVSL [5T4 9-mer peptide 121], the iScore in assay [5] came out at 0; in assay [6], 0.116; in assay [7] it was 0; in assay [8], 0.012.

Turning to HFLYLPRDV [5T4 9-mer peptide 111 HFLYLPRDV], the iScore in assay [1] stood at 0; in assay [2], 0.227; in assay [3], 0; in assay [4] it was 0.

In the case of VSLTYVSFR [5T4 9-mer peptide 124], the iScore in assay [5] stood at 0; in assay [6] it was 0; in assay [7] it was 0.025; in assay [8], 0.

For the molecule RALQGLRRL [5T4 9-mer peptide 104 RALQGLRRL], the iScore in assay [1] worked out at 0; in assay [2], 0.168; in assay [3], 0.027; in assay [4] it was 0.078.

For the molecule LTHLESLHL [5T4 9-mer peptide 129], the iScore turned out to be 0 in assay [5], 0.143 in assay [6], 0 in assay [7] and 0 in assay [8].

For the molecule RNLTHLESL [5T4 9-mer peptide 128], the iScore is 0 in assay [5], 0.072 in assay [6], 0 in assay [7] and 0 in assay [8].

For LELASNHFL [5T4 9-mer peptide 108 LELASNHFL], the iScore in assay [1] worked out at 0; in assay [2], 0.151; in assay [3] it was 0; in assay [4], 0.

As to HLESLHLED (also called HLESLHLED) [5T4 9-mer peptide 130], the iScore in assay [5], in assay [6], in assay [7] and in assay [8] was 0 each time.

On to LASNHFLYL [5T4 9-mer peptide 109 LASNHFLYL], for which the iScore is 0.12 in assay [1], 0.337 in assay [2], 0.224 in assay [3] and 0 in assay [4].

Regarding RRLELASNH [5T4 9-mer peptide 107 RRLELASNH], the iScore in assay [1], in assay [2], in assay [3] and in assay [4] was 0 each time.

For AALLAGRAL [5T4 9-mer peptide 101 AALLAGRAL], the iScore in assay [1] is 0; in assay [2], 0.156; in assay [3], 0; in assay [4] it was 0.238.

With NNSLVSLTY [5T4 9-mer peptide 122], the iScore in assay [5], in assay [6], in assay [7] and in assay [8] was 0 each time.

Consider ALKVLHNGT [5T4 9-mer peptide 135], for which the iScore turned out to be 0 in assay [5], 0.104 in assay [6], 0 in assay [7] and 0 in assay [8].

Turning to LDLSNNSLV [5T4 9-mer peptide 120], the iScore was 0 in assay [5], 0.156 in assay [6], 0 in assay [7] and 0 in assay [8].

Consider SLVSLTYVS [5T4 9-mer peptide 123], for which the iScore was determined as 0 in assay [5], 0.206 in assay [6], 0 in assay [7] and 0 in assay [8].

On to ESLHLEDNA [5T4 9-mer peptide 131], for which the iScore in assay [5], in assay [6], in assay [7] and in assay [8] was 0 each time.

In the case of LHNGTLAEL [5T4 9-mer peptide 137], the iScore in assay [5] turned out to be 0; in assay [6] it was 0.187; in assay [7], 0; in assay [8], 0.026.

Regarding LEDNALKVL [5T4 9-mer peptide 133], the iScore in assay [5] stood at 0; in assay [6], 0.122; in assay [7], 0; in assay [8] it was 0.

Turning to VLAQLPSLR [5T4 9-mer peptide 115 VLAQLPSLR], the iScore in assay [1] is 0; in assay [2], 0.113; in assay [3] it was 0.023; in assay [4], 0.

For the molecule SFRNLTHLE [5T4 9-mer peptide 127], the iScore in assay [5], in assay [6], in assay [7] and in assay [8] was 0 each time.

Consider GLRRLELAS [5T4 9-mer peptide 106 GLRRLELAS], for which the iScore stood at 0 in assay [1], 0.045 in assay [2], 0 in assay [3] and 0 in assay [4].
